Experiment [1] has as its target T1, recombinant purified CD123-Fc fusion protein (Bio-Techne/R&D Systems) (human, UniProt P26951 19-305).
T1 construct: Bought; also called Fc-fusion of the CD123 antigen; recombinant CD123
T1 sequence: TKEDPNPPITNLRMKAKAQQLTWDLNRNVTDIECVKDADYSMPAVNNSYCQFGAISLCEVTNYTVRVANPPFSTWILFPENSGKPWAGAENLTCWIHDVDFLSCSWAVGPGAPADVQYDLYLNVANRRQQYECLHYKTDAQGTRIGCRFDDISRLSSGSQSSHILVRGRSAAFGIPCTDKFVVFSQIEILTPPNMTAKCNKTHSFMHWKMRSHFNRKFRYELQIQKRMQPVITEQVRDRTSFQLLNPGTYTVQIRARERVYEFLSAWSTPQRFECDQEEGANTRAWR
Briefly: BLI, CD123-Fc on anti-human IgG Fc capture sensors; SD 4.3. On the procedure: (§1) To determine the kinetics of binding of humanized 1D2-5C8var1 variants to CD123, recombinant purified CD123-Fc fusion protein (Bio-Techne/R&D Systems) was loaded to a density of 1 nm onto anti-human IgG Fc Capture sensors (using a concentration of 5 μg/ml) for an Octet Red96e (Sartorius) instrument. Different sensors were then dipped in different concentrations of humanized 1D2-5C8var1 variants, starting at 50 nM and two-fold dilutions thereof; dilutions were made in 10× kinetic buffer (10×KB) provided by the supplier. From the obtained sensorgrams, the kinetic association- and dissociation rate constants were determined by curve fitting. The association- and dissociation rate constants, when fitting was possible, were used to calculate the affinity of the humanized 1D2-5C8var1 variants for binding to CD123. […] For reference, the non-humanized (parental) 1D2 was included in these experiments.
On the technique in general: BLI is a label-free optical method that tracks binding on a fibre tip over time.

The target in experiment [2] is T2, human CD123 expressed on cells (human, UniProt P26951 19-378).
T2 construct: also called interleukin-3 receptor alpha chain
Briefly: flow cytometry titration on 293F cells transiently expressing CD123; apparent affinity, EC50 by curve fitting.

Experiment [3] deals with T1, recombinant purified CD123-Fc fusion …. Briefly: BLI, CD123-Fc on anti-human IgG Fc capture sensors; SD 0.7. The protocol:
as §1

Experiment [4] concerns the target T3, BSA (bovine, UniProt P02769).
T3 construct: also called bovine serum albumin, negative control coating
Briefly: ELISA, wells coated with 1% BSA (panel BSA), HRP anti-VHH detection. An excerpt: FIG. 1: ELISA showing binding of all different bispecific VHHs to CD123, the Vγ9Vδ2 (GDT) TCR and BSA (as negative control). OD values are depicted; values are the mean of duplicate measurements; error bars indicate standard errors of the mean. A mono-valent anti-Vδ2 VHH was used as control for the TCR staining (“TCR control”) and a commercially available anti-CD123 antibody (“anti-CD123”) was used as control for the CD123 antigen coatings. “No AB” indicates a negative control without primary antibody.
Recombinant, purified CD123 antigen (extra-cellular domain; Sino Biological), or an Fc-fusion of the CD123 antigen (Bio-Techne/R&D Systems) was coated to the wells of an ELISA plate (Greiner) in PBS at a concentration of 2 μg/ml. As a negative control, wells were coated with 1% (w/v) BSA. An in-house designed, produced and purified recombinant form of the extra-cellular domains of the human Vγ9 and Vδ2 TCR chains fused to a human Fc was also coated as antigen at 2 μg/ml. After coating and blocking of the wells with 2% (w/v) BSA, bispecific VHH proteins were tested for binding at a saturating concentration of 50 nM and bound VHH was detected using an HRP-labeled anti-VHH antibody (Genscript) and staining using 3,3′,5,5′-tetramethylbenzidine (TMB)/H2O2.

Experiment [5] has as its target T2, human CD123 expressed on cells. Briefly: flow cytometry titration on 293F cells transiently expressing CD123, anti-VHH detection. The protocol: (§2) FIG. 3: Determination of the apparent affinity of 1D2-5C8var1 for binding to CD123 using flow cytometry. […] The geometric mean of the fluorescence intensity is plotted as a function of the antibody concentration used. The EC50 value was determined by curve fitting.
(§3) Expression constructs for human CD123 and for the common β chain of the receptor (CD131) were purchased from Invivogen. Plasmids were transformed to chemically competent DH5α bacteria and a single colony growing on selective medium was used to inoculate a 50 ml culture to amplify both constructs. […] Either plasmid alone, or a mix of the two plasmids was used for transfection. As negative control, untransfected cells were also used for flow cytometry. A day after transfection, cells were used to test the binding of the bispecific VHH using staining in FACS. Briefly, binding of a saturating concentration of 100 nM bispecific VHH to transfected cells was detected with an AF647-labeled anti-VHH (Genscript) antibody and staining was visualized using a FACS Celesta (Becton and Dickinson).
(§4) The former cells (expressing CD131) were used as negative control.
In general terms: A flow cytometer gives signals particle by particle.

Experiment [6] has the same target. Briefly: cell-based or functional assay.
Experiment [7] has as its target T4, human CD131 (common β chain of the IL3 receptor) expressed on 293F cells (human, UniProt P32927 17-897).
T4 sequence: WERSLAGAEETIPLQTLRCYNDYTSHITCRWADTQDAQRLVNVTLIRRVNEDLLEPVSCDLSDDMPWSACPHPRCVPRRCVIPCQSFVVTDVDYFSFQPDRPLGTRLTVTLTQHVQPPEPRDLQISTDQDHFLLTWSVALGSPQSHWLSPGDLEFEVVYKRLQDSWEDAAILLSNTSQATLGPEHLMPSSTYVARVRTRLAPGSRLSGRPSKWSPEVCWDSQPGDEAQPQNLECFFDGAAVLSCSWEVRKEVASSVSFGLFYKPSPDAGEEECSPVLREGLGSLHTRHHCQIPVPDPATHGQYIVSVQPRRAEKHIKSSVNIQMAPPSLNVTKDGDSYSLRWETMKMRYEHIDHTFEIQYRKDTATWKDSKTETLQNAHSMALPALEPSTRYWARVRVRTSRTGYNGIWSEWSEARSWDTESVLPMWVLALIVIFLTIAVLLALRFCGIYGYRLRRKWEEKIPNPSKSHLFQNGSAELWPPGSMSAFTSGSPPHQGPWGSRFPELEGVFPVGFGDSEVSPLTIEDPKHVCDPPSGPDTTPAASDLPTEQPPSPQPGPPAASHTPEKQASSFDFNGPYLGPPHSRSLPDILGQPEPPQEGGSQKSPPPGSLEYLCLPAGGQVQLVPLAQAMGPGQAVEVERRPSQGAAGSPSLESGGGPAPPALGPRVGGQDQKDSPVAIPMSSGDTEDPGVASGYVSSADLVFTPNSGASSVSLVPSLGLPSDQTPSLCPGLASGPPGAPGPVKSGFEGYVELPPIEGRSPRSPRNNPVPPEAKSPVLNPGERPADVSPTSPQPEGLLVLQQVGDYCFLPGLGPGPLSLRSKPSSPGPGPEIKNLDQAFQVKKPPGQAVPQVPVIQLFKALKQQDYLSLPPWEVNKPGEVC
Briefly: flow cytometry on 293F cells transiently expressing CD131, AF647-labeled anti-VHH detection. The protocol:
as §3

In experiment [8] the target is human CD123 co-expressed with CD131 on 293F cells (human, UniProt P26951 19-378; P32927 17-897). Briefly: flow cytometry titration on 293F cells transiently expressing CD123 and CD131, anti-VHH detection. On the procedure: as §2, §3, §4
Experiment [9] concerns the target T1, recombinant purified CD123-Fc fusion …. Briefly: BLI, CD123-Fc on anti-human IgG Fc capture sensors, Octet Red96e, two measurements. The protocol:
To determine the kinetics of binding of 1D2-5C8var1 to CD123, recombinant purified CD123-Fc fusion protein (Bio-Techne/R&D Systems) was loaded to a density of 1nm onto anti-human IgG Fc Capture sensors (using a concentration of 5 μg/ml) for an Octet Red96e (Sartorius) instrument. Different sensors were then dipped in different concentrations of 1D2-5C8var1; dilutions were made in 10× kinetic buffer (10×KB) provided by the supplier. From the obtained sensorgrams, the kinetic association- and dissociation rate constants were determined by curve fitting.
The latter is depicted as straight lines in the figure. This was used to determine the kinetic association- and dissociation rate constants and thereby the affinity of the anti-CD123 VHH 1D2.

Experiment [10] shares this target. Briefly: BLI, CD123-Fc on anti-human IgG Fc capture sensors; SD 0.4. On the procedure: as §1
Experiment [11] shares this target. Briefly: BLI, CD123-Fc on anti-human IgG Fc capture sensors; SD 1.5. The protocol:
as §1

Experiment [12] has the same target. Briefly: BLI, CD123-Fc on anti-human IgG Fc capture sensors; SD 0.5. The protocol:
as §1

Several values for one entry are separate records, joined by “and”; a condition that tells them apart may be missing. Identical values can stand only once.

T3 sequence (P02769 25-607 limits assumed): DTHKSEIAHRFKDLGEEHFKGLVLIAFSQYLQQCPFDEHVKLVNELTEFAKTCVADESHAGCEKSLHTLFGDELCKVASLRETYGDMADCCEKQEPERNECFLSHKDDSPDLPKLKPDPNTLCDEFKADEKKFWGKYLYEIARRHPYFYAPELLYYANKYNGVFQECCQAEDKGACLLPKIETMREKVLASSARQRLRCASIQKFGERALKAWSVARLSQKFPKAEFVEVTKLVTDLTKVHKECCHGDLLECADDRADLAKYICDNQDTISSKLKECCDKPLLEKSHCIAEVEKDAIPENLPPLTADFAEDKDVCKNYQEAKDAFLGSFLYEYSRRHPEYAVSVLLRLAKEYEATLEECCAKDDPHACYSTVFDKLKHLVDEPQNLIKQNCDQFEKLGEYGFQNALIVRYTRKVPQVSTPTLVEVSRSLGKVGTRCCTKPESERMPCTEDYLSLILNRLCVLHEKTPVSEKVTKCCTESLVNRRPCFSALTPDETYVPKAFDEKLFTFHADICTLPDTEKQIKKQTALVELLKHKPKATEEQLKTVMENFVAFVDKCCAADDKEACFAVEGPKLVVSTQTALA

B1: humanized 1D2-5C8var1 variant with 1D2 var3 (SEQ ID NO:27) (bispecific antibody)
chain: EVQLVESGGGLVQPGGSLRLSCAASGRTASSYVMSWFRQAPGKEREWVAVINWNGDSTYYADSVKGRFTISRDNSKNTVYLQMNSLRAEDTAVYYCAADTRREWYRDGYWGPPARYEYDYRGQGTLVTVSSGGGGSEVQLLESGGGSVQPGGSLRLSCAASGRPFSNYAMSWFRQAPGKEREFVSAISWSGGSTSYADSVKGRFTISRDNSKNTLYLQMNSLRAEDTAVYYCAAQFSGADYGFGRLGIRGYEYDYWGQGTQVTVSSAAAEPEA
notes: See note of m19
The term Kd denotes the concentration at which binding is half-saturated. Turning to B1, the Kd in experiment [1] turned out to be 14.9 nM.

B2: 1D2-5C8var1 bispecific VHH (bispecific antibody)
chain: EVQLVESGGGLVQAGGSLRLSCAASGRTASSYVMGWFRQAPGKEREFVAVINWNGDSTYYTDSVKGRFAISRDNAKNTVYLQMNSLKPEDTAVYYCAADTRREWYRDGYWGPPARYEYDYRGQGTQVTVSSGGGGSEVQLLESGGGSVQPGGSLRLSCAASGRPFSNYAMSWFRQAPGKEREFVSAISWSGGSTSYADSVKGRFTISRDNSKNTLYLQMNSLRAEDTAVYYCAAQFSGADYGFGRLGIRGYEYDYWGQGTQVTVSSAAAEPEA
notes: Orientation N-term-anti-CD123 VHH-linker-anti-Vδ2 VHH-C-tag; also called parental 1D2
For orientation: EC50 means the concentration that produces a half-maximal response. As a reminder, the EC50 (read off the curve) is the concentration at which the effect is half-maximal. Higher therefore signals weaker potency. Consider B2, for which the concentration giving a half-maximal response (EC50) in [2] was approximately 3 nM. The Kd in [3] came to 3.1 nM. The binding result in experiment [4] is reported as “no binding (tested: 50 nM (single concentration))”. Further, in [5], the “EC50 (read off the curve)” value is approximately 3 nM. Besides, in experiment [6], the “EC50 for cytotoxicity, C1R-neo target cell lysis by Vγ9Vδ2 T cells, 24 h” value was 0.001 to 0.002 nM; the “EC50 of T cell activation and lysis of primary AML blasts” value was less than 0.001 nM; the “EC50 of THP-1 target cell lysis by Vγ9Vδ2 T cells” value was found to be 1000 nM; the “EC50 of THP-1 target cell lysis by Vγ9Vδ2 T cells, 24 h” value was in the range of 0.001 to 0.003 nM. In addition, the binding result in experiment [7] is listed as “no binding (tested: 100 nM (single concentration))”. The concentration giving a half-maximal response (EC50 (read off the curve)) in experiment [8] is approximately 3 nM. Moreover, in experiment [9], the Kd was 3 to 5 nM and 5 nM.

B3: humanized 1D2-5C8var1 variant with 1D2 var1 (SEQ ID NO:25) (bispecific antibody)
chain: EVQLVESGGGLVQPGGSLRLSCAASGRTASSYVMGWFRQAPGKEREFVSVINWNGDSTYYADSVKGRFTISRDNSKNTLYLQMNSLRAEDTAVYYCAADTRREWYRDGYWGPPARYEYDYRGQGTQVTVSSGGGGSEVQLLESGGGSVQPGGSLRLSCAASGRPFSNYAMSWFRQAPGKEREFVSAISWSGGSTSYADSVKGRFTISRDNSKNTLYLQMNSLRAEDTAVYYCAAQFSGADYGFGRLGIRGYEYDYWGQGTQVTVSSAAAEPEA
For the molecule B3, in experiment [10], the Kd is 7.2 nM.

B4: humanized 1D2-5C8var1 variant with 1D2 var5 (SEQ ID NO:29) (bispecific antibody)
chain: EVQLVESGGGLVQPGGSLRLSCAASGRTASSYVMSWFRQAPGKEREFVAVINWNGDSTYYADSVKGRFTISRDNSKNTVYLQMNSLRAEDTAVYYCAADTRREWYRDGYWGPPARYEYDYRGQGTLVTVSSGGGGSEVQLLESGGGSVQPGGSLRLSCAASGRPFSNYAMSWFRQAPGKEREFVSAISWSGGSTSYADSVKGRFTISRDNSKNTLYLQMNSLRAEDTAVYYCAAQFSGADYGFGRLGIRGYEYDYWGQGTQVTVSSAAAEPEA
notes: See note of m19
As to B4, the Kd in experiment [11] amounted to 7.7 nM.

B5: humanized 1D2-5C8var1 variant with 1D2 var9 (SEQ ID NO:33) (bispecific antibody)
chain: EVQLVESGGGLVQAGGSLRLSCAASGRTASSYVMGWFRQAPGKEREWVAVINWNGDSTYYTDSVKGRFAISRDNAKNTVYLQMNSLRAEDTAVYYCAADTRREWYRDGYWGPPARYEYDYRGQGTQVTVSSGGGGSEVQLLESGGGSVQPGGSLRLSCAASGRPFSNYAMSWFRQAPGKEREFVSAISWSGGSTSYADSVKGRFTISRDNSKNTLYLQMNSLRAEDTAVYYCAAQFSGADYGFGRLGIRGYEYDYWGQGTQVTVSSAAAEPEA
notes: See note of m19
Regarding B5, in experiment [12], the Kd came to 2.6 nM.

For the origin of these results see patent US20240141071A1 (LAVA THERAPEUTICS N V, published 2024).
